The test concerns the target T1, human GPRC5D (human, UniProt Q9NZD1 1-345).
T1 construct: whole, on cells; also called hGPRC5D; G-protein coupled receptor family C group 5 member D
Put plainly: FACS, CHOS-hGPRC5D cells.

T1 sequence (Q9NZD1 whole entry): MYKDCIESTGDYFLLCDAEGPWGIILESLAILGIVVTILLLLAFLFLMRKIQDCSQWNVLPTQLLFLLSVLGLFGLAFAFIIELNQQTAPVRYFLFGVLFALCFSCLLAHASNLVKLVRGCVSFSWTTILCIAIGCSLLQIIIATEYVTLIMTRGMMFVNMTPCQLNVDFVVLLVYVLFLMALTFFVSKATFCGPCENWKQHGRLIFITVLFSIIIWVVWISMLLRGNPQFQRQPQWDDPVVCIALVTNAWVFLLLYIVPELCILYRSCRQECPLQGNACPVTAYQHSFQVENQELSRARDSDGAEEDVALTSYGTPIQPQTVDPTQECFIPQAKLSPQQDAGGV

B1: ch83A9B8 (antibody, V domains shown)
VH: EVQLQQSGPELVKPGASVKMSCKASGYTFSNYVIHWVKQKPGQGLEWIGYFNPYNDGSKYNEKFKGKATLTSDKSSSTAYMELSSLTSEDSAVYYCARGGVRRYFDVWGAGTTVTVSS
VL: DIQMTQSPSSLSASLGERVSLTCRASQDIGDNLNWLQQEPDGTIKRLIYATFSLDSGVPKRFSGSRSGSVYSLTISRLESEDFVDYFCLHYASFPYTFGGGTKLEIK
Regarding B1, the EC50 was determined as 0.4 nM and the Top was 1840.

B2: ch116F1G6 (antibody, V domains shown)
VH: EVQLQHSGPELVKPGASVKMSCKASGYTFTTYVMHWVKQKPGQGLEWIGYINPYNDGTKYNEKFKGKATLTSDKSSSTAYMELSSLTSEDSAVYYCARGGVRRYFDVWGAGTTVTVSS
VL: DIQMTQSPSSLSASLGERVSLTCRASQDIGSNLNWLQQEPNGTIKRLIYATFTLDSGVPKRFSGSRSGSDYSLTISSLESEDFVDYYCLQYASFPYTFGGGTKLEIK
The molecule B2 had an EC50 of 0.863 nM and a Top of 1170.

B3: ch82A1C10 (antibody, V domains shown)
VH: QVQLKESGPGLVAPSQSLSITCTVSGFSLTNYAVTWVRQPPGKGLEWLGVIWGDGSTYYHSALVSRLSITKDNSRTQVLLKLNSLQTDDTARYYCAKGGYSPFAYWGQGTLVTVSA
VL: DVVMTQTPLSLPVSLGDQASISCRSSQSLVHSNGNTYLHWYLQKPGQSPKLLIFKVSNRFSGVPDRFSGSGSGTDFTLKISRVEAEDLGVYFCSQNTHVPFTFGSGTKLEIK
On to B3, for which the EC50 worked out at 2.76 nM and the Top came to 2680.

B4: ch36A3G8 (antibody, V domains shown)
VH: QVQLQQSGAELARPGASVKMSCKASGYTFTTYTMHWIKQRPGQDLEWIGFINPSSGYTKYNQNFKDKATLTADKSSTTAYMQLNSLTSEDSAVYYCASPYGNIYFDVWGTGTTVTVSS
VL: DIVMTQSQKFMSTAVGDRVSITCKASQNVGTAVAWYQQKPGQSPKLLIYSASNRYTGVPDRFTGSGSGTDFTLTISNMQSEDLADYFCQQYSSYPLTFGAGTKLELK
In turn, B4 displayed an EC50 of 2.64 nM and a Top of 2780.

B5: ch116G1G4 (antibody, V domains shown)
VH: EVQLQQSGPELVKPGASVKMSCKASGYTFTYYIMHWVKQEPGQGLQWIGYINPYNDGAYYSARFKGKATLTSDKSSSTAYMDLTSLTSEDSAVYYCARGGVRRYFDVWGAGTTVTVSS
VL: DIQMTQSPSSLSASLGERVILTCRASQDIGSNLIWLQQKPDGTIKRLIYATFNLDSGVSKRFSGSRSGSDYSLTISSLDSEDFVDYYCLQYASSPYTFGGGTKLEIK
For B5, the EC50 amounted to 0.686 nM and the Top came to 2240.

What is called EC50 is the midpoint of the concentration-response curve. Read a low EC50 as higher potency in that assay.
